Reference: PMC8987015, “Studying Acetylation of Aconitase Isozymes by Genetic Code Expansion” (Frontiers in Chemistry, 2022)

B1: AcnA (Escherichia coli K-12) (protein)
chain: SSTLREASKDTLQAKDKTYHYYSLPLAAKSLGDITRLPKSLKVLLENLLRWQDGNSVTEEDIHALAGWLKNAHADREIAYRPARVLMQDFTGVPAVVDLAAMREAVKRLGGDTAKVNPLSPVDLVIDHSVTVDRFGDDEAFEENVRLEMERNHERYVFLKWGKQAFSRFSVVPPGTGICHQVNLEYLGKAVWSELQDGEWIAYPDTLVGTDSHTTMINGLGVLGWGVGGIEAEAAMLGQPVSMLIPDVVGFKLTGKLREGITATDLVLTVTQMLRKHGVVGKFVEFYGDGLDSLPLADRATIANMSPEYGATCGFFPIDAVTLDYMRLSGRSEDQVELVEKYAKAQGMWRNPGDEPIFTSTLELDMNDVEASLAGPKRPQDRVALPDVPKAFAASNELEVNATHKDRQPVDYVMNGHQYQLPDGAVVIAAITSCTNTSNPSVLMAAGLLAKKAVTLGLKRQPWVKASLAPGSKVVSDYLAKAKLTPYLDELGFNLVGYGCTTCIGNSGPLPDPIETAIKKSDLTVGAVLSGNRNFEGRIHPLVKTNWLASPPLVVAYALAGNMNINLASEPIGHDRKGDPVYLKDIWPSAQEIARAVEQVSTEMFRKEYAEVFEGTAEWKGINVTRSDTYGWQEDSTYIRLSPFFDEMQATPAPVEDIHGARILAMLGDSVTTDHISPAGSIKPDSPAGRYLQGRGVERKDFNSYGSRRGNHEVMMRGTFANIRIRNEMVPGVEGGMTRHLPDSDVVSIYDAAMRYKQEQTPLAVIAGKEYGSGSSRDWAAKGPRLLGIRVVIAESFERIHRSNLIGMGILPLEFPQGVTRKTLGLTGEEKIDIGDLQNLQPGATVPVTLTRADGSQEVVPCRCRIDTATELTYYQNDGILHYVIRNMLK
B2: AcnB (Escherichia coli K-12) (protein)
chain: MLEEYRKHVAERAAEGIAPKPLDANQMAALVELLKNPPAGEEEFLLDLLTNRVPPGVDEAAYVKAGFLAAIAKGEAKSPLLTPEKAIELLGTMQGGYNIHPLIDALDDAKLAPIAAKALSHTLLMFDNFYDVEEKAKAGNEYAKQVMQSWADAEWFLNRPALAEKLTVTVFKVTGETNTDDLSPAPDAWSRPDIPLHALAMLKNAREGIEPDQPGVVGPIKQIEALQQKGFPLAYVGDVVGTGSSRKSATNSVLWFMGDDIPHVPNKRGGGLCLGGKIAPIFFNTMEDAGALPIEVDVSNLNMGDVIDVYPYKGEVRNHETGELLATFELKTDVLIDEVRAGGRIPLIIGRGLTTKAREALGLPHSDVFRQAKDVAESDRGFSLAQKMVGRACGVKGIRPGAYCEPKMTSVGSQDTTGPMTRDELKDLACLGFSADLVMQSFCHTAAYPKPVDVNTHHTLPDFIMNRGGVSLRPGDGVIHSWLNRMLLPDTVGTGGDSHTRFPIGISFPAGSGLVAFAAATGVMPLDMPESVLVRFKGKMQPGITLRDLVHAIPLYAIKQGLLTVEKKGKKNIFSGRILEIEGLPDLKVEQAFELTDASAERSAAGCTIKLNKEPIIEYLNSNIVLLKWMIAEGYGDRRTLERRIQGMEKWLANPELLEADADAEYAAVIDIDLADIKEPILCAPNDPDDARPLSAVQGEKIDEVFIGSCMTNIGHFRAAGKLLDAHKGQLPTRLWVAPPTRMDAAQLTEEGYYSVFGKSGARIEIPGCSLCMGNQARVADGATVVSTSTRNFPNRLGTGANVFLASAELAAVAALIGKLPTPEEYQTYVAQVDKTAVDTYRYLNFNQLSQYTEKADGVIFQTAV

Key:
AcnA = AcnA (Escherichia coli, UniProt P25516); conditions: citrate 0.1 to 50 mM; enzyme reactivated with 1 mM (NH4)2Fe(SO4)2 and 5 mM DTT, 50 mM Tris pH 8
AcnB = AcnB (Escherichia coli, UniProt P36683); conditions: citrate 0.1 to 50 mM; enzyme reactivated with 1 mM (NH4)2Fe(SO4)2 and 5 mM DTT, 50 mM Tris pH 8
purified protein = substrate: O=C(O)CC(O)(CC(=O)O)C(=O)O; experiment: purified protein; conditions: citrate 0.1 to 50 mM, enzyme reactivated with 1 mM (NH4)2Fe(SO4)2 and 5 mM DTT, 50 mM Tris pH 8

| Molecule | Km (AcnA) [mM] | Km (AcnB) [mM] | Km (purified protein) [mM] | kcat (purified protein) [s⁻¹] |
| --- | --- | --- | --- | --- |
| O=C(O)CC(O)(CC(=O)O)C(=O)O [citrate] | 3.45 ± 0.23 | 9.76 ± 0.67 | – | – |
| B1 | – | – | 1.64 ± 0.21 | 20.6 ± 1.62 |
| B2 | – | – | 9.34 ± 0.72 | 63.5 ± 4.52 |
